# Laboratory results taken from the supplement of paper PMC9732359.
# ± gives the uncertainty stated by the source.
# Assay: protein stability index of a GFP-peptide fusion (yeast GPS) (PSI 1-4); higher = more stable; sorted into four equal gates, so the index is relative within each strain
# Conditions: pdr5∆
# Method in brief: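 The protein stability index of a peptide was calculated by multiplying its read frequency in each gate by that gate's number and adding the products. The peptides were tiled 17-residue stretches of yeast proteins, fused downstream of GFP on a Cherry-expressing plasmid and carried in yeast as a pooled library. Mid-log cultures in leucine-free medium were sorted into four equal gates by GFP/Cherry ratio, and each gate's plasmids were PCR-amplified and Illumina-sequenced.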
row,Sequence,protein stability index
1,SVSLVDEFPSELSDSDR [SIR4],2.57 ± 0.058
2,SVVKKEDNKYAIAGNST [RGR1],2.63 ± 0.072
3,SVVSMSNDVLKPETPKG [SIR2],3.51 ± 0.11
4,SYDKTVKLWEEDPDQEE [YGL100W/SEH1],3.21 ± 0.079

# Same assay, conditions: san1∆
row,Sequence,protein stability index
1,SLGIAQPKGVILYGPPG [RPT6],2.77 ± 0.089
2,SLHSNSFSLTVSKEQFL [YJL039C/NUP192],1.84 ± 0.12
3,SLKLENSDLEGKIRGVE [SMC2],3.37 ± 0.061
4,SLLDKPDEAIEKVFNAY [FAS1],3.2 ± 0.066
5,SLSDNDLAVCATIIGII [ECM29],2.78 ± 0.053
6,SLSIKLATLHYQKKQYK [RPN6],1.34 ± 0.11
7,SLWRRTVYSLSQQAGLD [YDL116W/NUP84],1.78 ± 0.27
8,SMCGFEVRILPRQRMEE [PRP8],2.23 ± 0.063
9,SMNVTLGVPRIKEIINA [RPO31],2.13 ± 0.065
10,SNEDVMMTGAEQDPYSN [RPB3],3.19 ± 0.085
11,SNEEKEKIKMKLKQGQK [GAL11],3.04 ± 0.07
12,SNEEQRNLDSATLKEIK [SMC3],3.46 ± 0.084
13,SNGGNNMLPQRQSSVGS [SNF2],2.19 ± 0.076
14,SNKKETKKKRKPTEVND [ITC1],3.26 ± 0.07
15,SNLAATKSMVKIAEQYS [RPN11],3.04 ± 0.051
16,SNMFDNSADVDMDAQGR [YGL100W/SEH1],3.5 ± 0.057
17,SNNTGNTAFGNSNPTSN [YJL041W/NSP1],2.66 ± 0.15
18,SNQLISNYAASNSMDRS [SWI1],3.27 ± 0.12
19,SNRLHPPDIHPNLGPQL [GRR1],3.01 ± 0.054
20,SNSTPNANQQFLPFNNS [SWI1],2.96 ± 0.059
21,SNSVFSPDGRNFQVEYA [PRE10],2.87 ± 0.049
22,SNYDWLFQLLNALTVGD [RPN9],2.2 ± 0.083
23,SPAALKQLASLKKSEEI [YMR153W/NUP53],2.65 ± 0.17
24,SPASGIVDKYIGESARI [RPT4],2.45 ± 0.16
25,SPELKAELRPLQFKSIR [RPS7A],2.61 ± 0.14

row,Sequence,protein stability index
1,SPFFVLDEVDAALDITN [SMC1],2.63 ± 0.066
2,SPMLKRIKITANNNMND [GRR1],1.77 ± 0.079
3,SPRNTYQCAMGKQAIGA [RET1],2.83 ± 0.15
4,SPSYSPTSPAYSPTSPS [RPO21],2.81 ± 0.048
5,SPSYSPTSPNYSPTSPS [RPO21],2.97 ± 0.033
6,SPTESYSDIGGLESQIQ [RPT2],3.41 ± 0.06
7,SPYAAMLAAQDVAAKCK [RPS14A],1.62 ± 0.067
8,SQASSDLGETFRGIIRS [CSL4],3.3 ± 0.096
9,SQDTKVICSVTGPIEPK [RRP46],1.94 ± 0.11
10,SQLQPQPQPQPQQQQQH [YDL088C/ASM4],2.51 ± 0.13
11,SQPSKKSFANHTEDEQI [SIR4],3.08 ± 0.059
12,SREIAQPSSSRYNGGND [SMB1],3.22 ± 0.053
13,SRIYKTIKVAGTPLLEV [SNU114],2.03 ± 0.071
14,SRKAHGLNAKQLYKARM [POP1],2.96 ± 0.05
15,SRKGIAFGLGAIMSKSS [ECM29],1.64 ± 0.08
16,SRKRAKKMTKKAKRSNL [PRP8],2.11 ± 0.094
17,SRKRKPKSASNTSSKRQ [IRR1],2.89 ± 0.085
18,SRPASYGYFSVGKRVPI [SIR4],2.15 ± 0.13
19,SRRWRQRKNIQSLELMI [BRR2],2.15 ± 0.15
20,SRTFDKYSKLVDNVTLE [SRP72],3.44 ± 0.094
21,SRYILFEIIFPPTDTNV [POP5],1.53 ± 0.086
22,SSFEENNDLESVSMLLQ [RRI2],3 ± 0.048
23,SSFVRQELAKSIRSRRP [PRE1],1.78 ± 0.23
24,SSKLYQMQQQQQAQAQA [GAL11],1.9 ± 0.082
25,SSKTSQPKPLFSFGKSD [YOR098C/NUP1],2.19 ± 0.047

row,Sequence,protein stability index
1,SSLVRRNSVKLLSKLLL [YCS4],1.64 ± 0.085
2,SSQLNKLTDEQSSLDVA [SIR3],2.65 ± 0.09
3,SSQVREHVKELLKYSNE [RPL1A],2.47 ± 0.085
4,SSSDFRLHYYPKDPSNV [BRR2],3.47 ± 0.052
5,SSTQDVILRKISMLVTQ [CSI1],1.91 ± 0.085
6,SSVVSEPKKPSFTFASS [YOR098C/NUP1],3.01 ± 0.044
7,SSVYRLKFAVQVDKVTK [RPL26A],2.71 ± 0.24
8,SSYEEFLERFDFYTRHH [ITC1],3.03 ± 0.073
9,STEEIEYIELEYRDLYT [YMR129W/POM152],2.94 ± 0.13
10,STFGFNNSAPNNTNNAN [YJL041W/NSP1],2.96 ± 0.039
11,STGCVVGLSQPDAKIQV [YMR129W/POM152],2.47 ± 0.063
12,STGLKNASDALKGRVVE [RPS1B],2.91 ± 0.12
13,STISAREIQTAVRLILP [HTB1],2.52 ± 0.087
14,STKELKFSDIIQGISKM [BRN1],3.18 ± 0.072
15,STKVENSAIIQNLRKEL [YIL149C/MLP2],3.28 ± 0.071
16,STLLCTDLESKSRMINF [SNU114],2.67 ± 0.044
17,STMGTPTVHNSTAAAPI [PGD1],2.76 ± 0.06
18,STSGDPSEFHCLQDALD [SSN2],3.08 ± 0.068
19,STTEHINIDDLLYELTA [YJL039C/NUP192],2.43 ± 0.099
20,STTQEILEFITAAQVAN [RPC34],1.9 ± 0.088
21,STVAKNVSFVLPDEKSD [YCG1],3.09 ± 0.041
22,STVASALDTNGTSATTE [SIR4],2.91 ± 0.064
23,STVKGSVDLEKLAFGLT [TAF14],3.61 ± 0.057
24,STVSANHSNNDIPTIAD [BRN1],3.02 ± 0.069
25,SVAEVFQKAQGSYAGHR [YCG1],1.65 ± 0.24

row,Sequence,protein stability index
1,SVDIGVETILSGKARIC [FAS2],1.8 ± 0.12
2,SVDITGGPWFTDGELDI [RPC34],3.12 ± 0.13
3,SVDKKVDSGEERNEQER [SWI3],3.25 ± 0.11
4,SVDMSALKDPQTDADRV [RIP1],3.2 ± 0.23
5,SVEAYLVSLFEDTNLAA [HHT1],2.59 ± 0.15
6,SVFDATSDPVMHKQLAY [RPN1],1.79 ± 0.14
7,SVFNAELLKLLNDEYNY [YCS4],1.95 ± 0.095
8,SVGTDPMPIITFLSEWG [RPB2],1.57 ± 0.094
9,SVIPLKGRYAPETGDHV [RRP4],2.67 ± 0.073
10,SVIVKFHSEPDRDENWI [LIN1],2.96 ± 0.056
11,SVKKAGASINSMKANTS [ARP7],2.42 ± 0.054
12,SVKLDLQDDEDHKFPIR [BRN1],2.76 ± 0.14
13,SVKLKQKRLEAGALNLA [DIS3],3.36 ± 0.081
14,SVLHSWVQLVQIIVTDG [YJL039C/NUP192],1.28 ± 0.085
15,SVLISIPLDNYDDFIYL [PCI8],1.28 ± 0.11
16,SVLQLFQSVQLNINNPN [SMC2],1.68 ± 0.058
17,SVLSSKPGSKPEKTSTE [SIR3],3.15 ± 0.078
18,SVLYPDELEDDTLNETN [RRP43],3.19 ± 0.08
19,SVPIWVDTSTELESMLE [RRP6],3.06 ± 0.063
20,SVQDLGGSATARHKKKV [YML031W/NDC1],1.57 ± 0.21
21,SVSLLNSDIANLRTQVT [SMC1],3.13 ± 0.096
22,SVSLVDEFPSELSDSDR [SIR4],2.64 ± 0.067
